Experimental data reported in patent US20260242478A1 (published 2026).
Where no end group is shown, it is not given here.

Columns and labels:
[1] = molecular target: PSMA Fab (anti-PSMA Fab; 006 PSMA Fab); test: phage binding ELISA on captured PSMA Fab; wells first incubated with PSMA antigen as competitor; anti-M13 HRP detection
Description: (§1) Clonal phage were harvested as crude supernatants and screened via standard ELISAs. […] Prior to the addition of clonal phage. wells were incubated with blocking buffer and PSMA antigen or blocking buffer alone. Without washing or aspirating, clonal phage supernatants were then added to the wells and incubated for a short time. Wells were then washed followed by detection of bound phage using a horse radish conjugated anti-M13 antibody.

[2] = molecular target: PSMA Fab (anti-PSMA Fab; 006 PSMA Fab); test: phage binding ELISA; clonal phage supernatant on biotinylated PSMA Fab captured on neutravidin plate; anti-M13 HRP detection
Description: as §1

006 PSMA Fab [3] = molecular target: T1, 006 PSMA Fab (biotinylated (site not stated)); test: clonal phage ELISA on captured PSMA Fab, wells pre-incubated with PSMA antigen as competitor
T1 construct: Biotinylated PSMA Fab captured on neutravidin coated plates in the panning ELISA; also called Anti-PSMA Fab

006 PSMA Fab [4] = molecular target: T1, 006 PSMA Fab; test: clonal phage ELISA on biotinylated PSMA Fab captured on neutravidin plates, anti-M13-HRP detection;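 further: crude clonal phage supernatants added to wells preincubated with PSMA antigen or with blocking buffer only (no wash between), briefly incubated, then washed before detecting bound phage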
Description: as §1

006 PSMA Fab [5] = molecular target: T2, 006 PSMA Fab; test: clonal phage ELISA on biotinylated PSMA Fab captured on neutravidin plates, anti-M13 HRP detection;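 further: crude clonal phage supernatants tested, before phage were added, wells were pretreated with PSMA antigen in blocking buffer or with blocking buffer only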
T2 construct: also called Anti-PSMA Fab
Description: as §1

006 PSMA Fab [6] = molecular target: T2, 006 PSMA Fab; test: clonal phage ELISA on captured PSMA Fab pre-incubated with PSMA antigen as competitor, anti-M13 HRP detection;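 further: crude clonal phage supernatants tested by ELISA, wells first treated with blocking buffer plus PSMA antigen, bound phage read out via HRP-linked anti-M13 antibody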
Description: as §1

Row | Binder | phage binding ELISA signal in presence of PSMA antigen (006 PSMA Fab [3]) | phage binding ELISA signal (006 PSMA Fab [4]) | Phage binding ELISA signal, Anti-PSMA Fab (006 PSMA Fab [5]) | Phage binding ELISA signal, Anti-PSMA Fab with PSMA antigen (006 PSMA Fab [6]) | further results
1 | WEKLCRPAWMCAAY (cysteine pairing not given here; also: fused to pIII, displayed on bacteriophage) [Phage-2738 (Peptide-180 library clone)] |  |  |  |  | Phage binding ELISA signal, Anti-PSMA Fab with PSMA antigen [1]: 0.0754; Phage binding ELISA signal, Anti-PSMA Fab [2]: 0.715
2 | AHNWCTPAWMCMWD (cysteine pairing not given here; also: fused to pIII, displayed on bacteriophage, Clone of the Peptide-180 optimisation library, tested as clonal phage supernatant (peptide fused to pIII of the bacteriophage)) [Phage-2756] | 0.0753 | 0.682 |  |  | 
3 | QIKWCIPMWMCEGE (Clone of the Peptide-180 optimisation library, tested as clonal phage supernatant (peptide fused to pIII of the bacteriophage)) [Phage-2770] | 0.0554 | 0.651 |  |  | 
4 | FEKWCTPTWMCWPY (Clone of the Peptide-180 optimisation library, tested as clonal phage supernatant (peptide fused to pIII of the bacteriophage)) [Phage-2763] | 0.0829 | 0.661 |  |  | 
5 | GEIRCSPAWMCDGF (Clone of the Peptide-180 optimisation library, tested as clonal phage supernatant (peptide fused to pIII of the bacteriophage)) [Phage-2757] | 0.104 | 0.682 |  |  | 
6 | VDRWCTPPWMCDWQ (cysteine pairing not given here; also: fused to pIII of bacteriophage, linker and pIII sequence not given here, Clonal phage of the Peptide-180 optimization library, tested as crude phage supernatant; not shown: fused to pIII of the bacteriophage) [Phage-2837] |  |  | 0.429 | 0.0626 | 
7 | VAKLCTPAWMCSAM (cysteine pairing not given here; also: fused to pIII of bacteriophage, linker and pIII sequence not given here, Clonal phage of the Peptide-180 optimization library, tested as crude phage supernatant; not shown: fused to pIII of the bacteriophage) [Phage-2835] |  |  | 0.431 | 0.0638 | 
8 | VEKWCTPAWMCSTS (Clone of the Peptide-180 optimisation library, tested as clonal phage supernatant (peptide fused to pIII of the bacteriophage)) [Phage-2766] | 0.065 | 0.657 |  |  | 
9 | MQKMCIPTWMCDGL (Clone of the Peptide-180 optimisation library, tested as clonal phage supernatant (peptide fused to pIII of the bacteriophage)) [Phage-2759] | 0.0817 | 0.673 |  |  | 
10 | HPKLCTPEWMCVIQ (cysteine pairing not given here; also: fused to pIII of bacteriophage, linker and pIII sequence not given here, Clonal phage of the Peptide-180 optimization library, tested as crude phage supernatant; not shown: fused to pIII of the bacteriophage) [Phage-2838] |  |  | 0.424 | 0.104 | 
11 | WDMLCRPAWMCEGF (cysteine pairing not given here; also: fused to pIII of bacteriophage, linker and pIII sequence not given here, Clonal phage of the Peptide-180 optimization library, tested as crude phage supernatant; not shown: fused to pIII of the bacteriophage) [Phage-2845] |  |  | 2.48 | 0.157 | 
12 | HGKLCTPSWMCNGF [Phage-2735 (Peptide-180 library clone)] |  |  |  |  | Phage binding ELISA signal, Anti-PSMA Fab with PSMA antigen [1]: 0.0619; Phage binding ELISA signal, Anti-PSMA Fab [2]: 0.721
13 | PWKWCTPVWMCQGV (Clone of the Peptide-180 optimisation library, tested as clonal phage supernatant (peptide fused to pIII of the bacteriophage)) [Phage-2761] | 0.0937 | 0.669 |  |  | 
14 | WINWCTPQWMCADL (cysteine pairing not given here; also: fused to pIII, displayed on bacteriophage, Clone of the Peptide-180 optimisation library, tested as clonal phage supernatant (peptide fused to pIII of the bacteriophage)) [Phage-2762] | 0.13 | 0.662 |  |  | 
15 | DWKLCKPTWMCESL (cysteine pairing not given here; also: fused to pIII of bacteriophage, linker and pIII sequence not given here, Clonal phage of the Peptide-180 optimization library, tested as crude phage supernatant; not shown: fused to pIII of the bacteriophage) [Phage-2836] |  |  | 0.43 | 0.0664 | 
16 | PVKMCTPAWMCSER (Clone of the Peptide-180 optimisation library, tested as clonal phage supernatant (peptide fused to pIII of the bacteriophage)) [Phage-2760] | 0.0866 | 0.67 |  |  | 

Row | Binder | phage binding ELISA signal in presence of PSMA antigen (006 PSMA Fab [3]) | phage binding ELISA signal (006 PSMA Fab [4]) | Phage binding ELISA signal, Anti-PSMA Fab (006 PSMA Fab [5]) | Phage binding ELISA signal, Anti-PSMA Fab with PSMA antigen (006 PSMA Fab [6]) | further results
17 | TNNWCIPSWMCDIR [Phage-2737 (Peptide-180 library clone)] |  |  |  |  | Phage binding ELISA signal, Anti-PSMA Fab with PSMA antigen [1]: 0.0629; Phage binding ELISA signal, Anti-PSMA Fab [2]: 0.718
18 | AENWCTPRWMCEGI (Clone of the Peptide-180 optimisation library, tested as clonal phage supernatant (peptide fused to pIII of the bacteriophage)) [Phage-2768] | 0.201 | 0.655 |  |  | 
19 | EPQWCIPKWMCDHM (cysteine pairing not given here; also: fused to pIII of bacteriophage, linker and pIII sequence not given here, Clonal phage of the Peptide-180 optimization library, tested as crude phage supernatant; not shown: fused to pIII of the bacteriophage) [Phage-2840] |  |  | 0.423 | 0.0608 | 
20 | PEVMCRPVWMCLGF (cysteine pairing not given here; also: fused to phage pIII, linker not given here, Clonal phage of the Peptide-180 optimization library, tested as crude phage supernatant; not shown: fused to pIII of the bacteriophage) [Phage-2842] |  |  | 2.51 | 0.112 | 
21 | FENWCTPYWMCSGM [Phage-2739 (Peptide-180 library clone)] |  |  |  |  | Phage binding ELISA signal, Anti-PSMA Fab with PSMA antigen [1]: 0.0884; Phage binding ELISA signal, Anti-PSMA Fab [2]: 0.712
22 | ESIRCTPAWMCVEM (cysteine pairing not given here; also: fused to pIII of bacteriophage, linker and pIII sequence not given here, Clonal phage of the Peptide-180 optimization library, tested as crude phage supernatant; not shown: fused to pIII of the bacteriophage) [Phage-2841] |  |  | 0.421 | 0.0725 | 
23 | SYKWCTPDWMCVAV (Clone of the Peptide-180 optimisation library, tested as clonal phage supernatant (peptide fused to pIII of the bacteriophage)) [Phage-2769] | 0.0709 | 0.651 |  |  | 
24 | ENHWCRPMWMCETI (Clone of the Peptide-180 optimisation library, tested as clonal phage supernatant (peptide fused to pIII of the bacteriophage)) [Phage-2764] | 0.0683 | 0.66 |  |  | 
25 | VVAMCKPAWMCAGL (cysteine pairing not given here; also: fused to pIII of bacteriophage, linker and pIII sequence not given here, Clonal phage of the Peptide-180 optimization library, tested as crude phage supernatant; not shown: fused to pIII of the bacteriophage) [Phage-2844] |  |  | 2.48 | 0.0731 | 
26 | MVHWCTPSWMCSAL (Clone of the Peptide-180 optimisation library, tested as clonal phage supernatant (peptide fused to pIII of the bacteriophage); Row read against Peptide-180: MVHWCTPSWMCSAL) [Phage-2758] | 0.1 | 0.677 |  |  | 
27 | QMPLCIPQWMCTNN [Phage-2734 (Peptide-180 library clone)] |  |  |  |  | Phage binding ELISA signal, Anti-PSMA Fab with PSMA antigen [1]: 0.0562; Phage binding ELISA signal, Anti-PSMA Fab [2]: 0.723
28 | IVKWCTPAWMCDQQ [Phage-2736 (Peptide-180 library clone)] |  |  |  |  | Phage binding ELISA signal, Anti-PSMA Fab with PSMA antigen [1]: 0.0809; Phage binding ELISA signal, Anti-PSMA Fab [2]: 0.72
29 | DVTWCIPPWMCMYN (Clone of the Peptide-180 optimisation library, tested as clonal phage supernatant (peptide fused to pIII of the bacteriophage)) [Phage-2767] | 0.0814 | 0.655 |  |  | 
30 | DSHWCMPVWMCMGL (cysteine pairing not given here; also: fused to pIII of bacteriophage, linker and pIII sequence not given here, Clonal phage of the Peptide-180 optimization library, tested as crude phage supernatant; not shown: fused to pIII of the bacteriophage) [Phage-2839] |  |  | 0.423 | 0.156 | 
31 | MLPICKPDWMCAGF (cysteine pairing not given here; also: fused to pIII of bacteriophage, linker and pIII sequence not given here, Clonal phage of the Peptide-180 optimization library, tested as crude phage supernatant; not shown: fused to pIII of the bacteriophage) [Phage-2843] |  |  | 2.49 | 0.0942 | 
32 | HAIWCIPEWMCAFN (cysteine pairing not given here; also: fused to pIII, displayed on bacteriophage, Clone of the Peptide-180 optimisation library, tested as clonal phage supernatant (peptide fused to pIII of the bacteriophage)) [Phage-2765] | 0.124 | 0.658 |  |  | 
